The values below come from patent CN114409766A (AGRICULTURAL UNIV IN CHINA, dated 2022).

For this experiment, the target named is T1, EBV病毒颗粒 (gp350 on EB virus particles) (Epstein-Barr virus, UniProt P03200 1-907).
T1 construct: also called EBV颗粒; UV-EBV病毒颗粒
T1 sequence (looked up): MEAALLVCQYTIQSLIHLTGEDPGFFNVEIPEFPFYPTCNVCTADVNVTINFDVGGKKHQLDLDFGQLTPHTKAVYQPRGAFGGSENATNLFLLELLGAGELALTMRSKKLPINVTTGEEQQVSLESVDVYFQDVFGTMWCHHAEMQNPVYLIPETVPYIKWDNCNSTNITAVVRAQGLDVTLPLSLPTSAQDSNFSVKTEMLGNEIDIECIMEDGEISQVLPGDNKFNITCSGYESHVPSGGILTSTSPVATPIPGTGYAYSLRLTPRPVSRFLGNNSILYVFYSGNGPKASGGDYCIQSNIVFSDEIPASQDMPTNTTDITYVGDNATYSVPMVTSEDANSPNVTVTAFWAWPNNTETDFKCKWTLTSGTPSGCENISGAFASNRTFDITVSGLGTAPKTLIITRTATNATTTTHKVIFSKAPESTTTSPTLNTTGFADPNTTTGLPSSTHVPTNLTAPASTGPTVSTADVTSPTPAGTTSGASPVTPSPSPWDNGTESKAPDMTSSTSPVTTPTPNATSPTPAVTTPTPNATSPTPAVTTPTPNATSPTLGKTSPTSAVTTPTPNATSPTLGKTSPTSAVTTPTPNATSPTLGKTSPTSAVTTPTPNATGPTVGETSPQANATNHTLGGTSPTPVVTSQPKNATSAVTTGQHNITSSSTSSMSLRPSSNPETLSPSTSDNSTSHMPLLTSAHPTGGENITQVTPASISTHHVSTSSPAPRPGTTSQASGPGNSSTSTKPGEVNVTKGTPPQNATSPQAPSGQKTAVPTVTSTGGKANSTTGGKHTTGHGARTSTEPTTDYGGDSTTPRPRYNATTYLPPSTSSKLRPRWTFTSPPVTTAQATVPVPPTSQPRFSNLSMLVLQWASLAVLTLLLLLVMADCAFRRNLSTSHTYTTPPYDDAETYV
Briefly: ELISA, EBV particles coated, titrated binder.

B1: 单克隆抗体R9 (scFv fused to FLAG tag or hFc) (scFv)
scFv: QSVKESEGGLFKPTDTLTLTCTVSGSSLRSYGVSWVRQAPGTGLEWIGAIGRSGSAYYASWAKSRSTITRNTNDNTVTLKMTSLTAADTATYFCARAYFGNSIGPFNIWGPGTLVTVSSGGGGSGGGGSGGGGSAIVLTQTPSSVSAPVGGTVTINCQASQSVSNLLAWYQQKPGQPPKLLIYGASNLESGVPSRFRGSGSGTQFTLTISGVKAEDVAAYYCHQHSSFPLTFGAGTKVEIK
Turning to B1, the binding result is “binds”.

B2: 单克隆抗体R1 (scFv fused to FLAG tag or hFc) (scFv)
scFv: QSVKESEGGLFKPTDTLTLTCTVSGFSLSSNAISWVRQAPGNGLEYIGYISYRGNTYYASWARSRSTITRNTNENTVTLKMTRLTAADTATYFCARIRSYSRANGHADGFDPWGPGTLVTVSSGGGGSGGGGSGGGGSDVVMTQTPSSVSAAVGGTVTINCQASESISNLLAWYQQKPGQPPKLLIYGASNLESGVPSRFRGSGSGTQFTLTISGVKDEDVATYYCQSGRYAAGATFGAGTNVEIK
notes: also called R1抗体; 单抗R1
Consider B2, for which the binding result is given as “binds”.
